Data on two molecules can be found in patent publication US20180147281A1 (Astellas, published 2018).

Assay [1] has as its target T1, human NGF (R&D Systems, 256-GF-100/CF) (human, UniProt P01138 122-241, in the competitive ELISAs biotinylated with EZ-Link NHS-PEG4-Biotin (sites not given); unlabelled when immobilized in the binding ELISA).
T1 construct: Commercial recombinant protein; also called biotinylated human NGF; nerve growth factor
Put plainly: human NGF-trkA competitive ELISA after incubation of the antibody 14 days at pH 6 and 50 C; geometric average of two runs.

Assay [2] deals with T1, human NGF (R&D Systems, 256-GF-100/CF). Put plainly: human NGF-trkA competitive ELISA, trkA immobilized, biotinylated human NGF; geometric average of two runs.
Assay [3] has the same target. Put plainly: human NGF-trkA competitive ELISA, IC50 after against before incubation.
For assay [4] the target is unchanged. Put plainly: ELISA, human NGF immobilized, detection with biotinylated anti-human kappa light-chain antibody; geometric average of two runs.
For assay [5] the target is unchanged. Put plainly: human NGF-trkA competitive ELISA; geometric average of three tests.

B1: fully human anti-human NGF antibody 1-15 (N52D-A)-Fab' fragment (Fab, V domains shown)
VH: QVQLQQWGAGLLKPSETLSLTCAVYGGSFSGYYWSWVRQPPGKGLEWIGEIDHSGSTNNNPSLKSRVTISVGTSKNQFSLKLSSVTAADTAVYYCSRDGGPESGMGAFDIWGQGTMVTVSS
VL: not shown
As for B1, the figures for the IC50 in assay [1] and in assay [2] were 0.47 µg/mL and 0.3 µg/mL, respectively. Besides, in assay [3], the “increase rate of the IC50 value after incubation for 14 days at 50 C relative to that before the incubation” value is 59%.

B2: Tanezumab (antibody, V domains shown)
VH: QVQLQESGPGLVKPSETLSLTCTVSGFSLIGYDLNWIRQPPGKGLEWIGIIWGDGTTDYNSAVKSRVTISKDTSKNQFSLKLSSVTAADTAVYYCARGGYWYATSYYFDYWGQGTLVTVSS
VL: DIQMTQSPSSLSASVGDRVTITCRASQSISNNLNWYQQKPGKAPKLLIYYTSRFHSGVPSRFSGSGSGTDFTFTISSLQPEDIATYYCQQEHTLPYTFGQGTKLEIKR
B2 had an EC50 in assay [4] of 0.146 µg/mL. This molecule yielded an IC50 in assay [5] of 0.86 µg/mL.
